In patent US20210230254A1:

Target: 2CC-core (HIV-1 YU2) (UniProt P35961)
Assay: not given

12A21 (antibody), sequence (VH): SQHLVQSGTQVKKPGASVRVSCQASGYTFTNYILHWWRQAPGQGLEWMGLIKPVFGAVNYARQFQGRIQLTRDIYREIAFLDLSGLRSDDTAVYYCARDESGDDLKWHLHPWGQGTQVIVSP
12A21 (antibody), sequence (VL): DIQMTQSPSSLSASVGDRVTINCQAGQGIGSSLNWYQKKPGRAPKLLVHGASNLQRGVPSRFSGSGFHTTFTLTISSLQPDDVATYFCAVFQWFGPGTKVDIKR
12A12 (antibody), sequence (VH): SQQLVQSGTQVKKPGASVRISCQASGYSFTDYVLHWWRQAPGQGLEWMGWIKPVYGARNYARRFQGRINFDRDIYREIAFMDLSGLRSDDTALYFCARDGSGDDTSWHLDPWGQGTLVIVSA
12A12 (antibody), sequence (VL): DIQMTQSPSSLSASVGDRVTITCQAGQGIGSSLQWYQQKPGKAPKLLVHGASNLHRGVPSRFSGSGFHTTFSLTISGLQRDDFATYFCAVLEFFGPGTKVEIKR
3BNC117 (antibody), sequence (VH): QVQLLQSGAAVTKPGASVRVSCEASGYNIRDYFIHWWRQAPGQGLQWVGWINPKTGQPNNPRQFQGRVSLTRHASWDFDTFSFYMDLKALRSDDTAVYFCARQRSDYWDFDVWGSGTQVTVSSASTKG
3BNC117 (antibody), sequence (VL): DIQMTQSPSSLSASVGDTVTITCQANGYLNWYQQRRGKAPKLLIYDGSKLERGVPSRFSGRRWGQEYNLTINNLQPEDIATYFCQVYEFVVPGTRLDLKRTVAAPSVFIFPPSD
3BNC66 (antibody), sequence (V domain): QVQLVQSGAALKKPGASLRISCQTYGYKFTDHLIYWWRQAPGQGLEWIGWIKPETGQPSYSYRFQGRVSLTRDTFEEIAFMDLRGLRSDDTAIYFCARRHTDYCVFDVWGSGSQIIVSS
3BNC66 (antibody), sequence (VL): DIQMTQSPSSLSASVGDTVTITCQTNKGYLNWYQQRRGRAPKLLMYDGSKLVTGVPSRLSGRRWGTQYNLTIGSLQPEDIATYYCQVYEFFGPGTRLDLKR
3BNC55 (antibody), sequence (V domain): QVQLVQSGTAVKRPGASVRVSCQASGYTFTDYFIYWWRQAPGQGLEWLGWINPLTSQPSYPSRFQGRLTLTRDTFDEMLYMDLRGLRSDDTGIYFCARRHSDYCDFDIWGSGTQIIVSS
3BNC55 (antibody), sequence (VL): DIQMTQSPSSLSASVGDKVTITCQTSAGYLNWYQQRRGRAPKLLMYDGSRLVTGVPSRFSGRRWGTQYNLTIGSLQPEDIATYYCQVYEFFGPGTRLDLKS
3BNC156 (antibody), sequence (VH): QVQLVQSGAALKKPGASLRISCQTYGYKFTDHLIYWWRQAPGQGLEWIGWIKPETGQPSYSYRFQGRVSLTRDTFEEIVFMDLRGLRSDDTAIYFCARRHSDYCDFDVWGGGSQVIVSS
3BNC156 (antibody), sequence (VL): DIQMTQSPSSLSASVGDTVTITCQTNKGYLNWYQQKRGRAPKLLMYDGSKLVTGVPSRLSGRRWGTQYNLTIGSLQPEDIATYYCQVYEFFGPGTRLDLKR
3BNC60 (antibody), sequence (VH): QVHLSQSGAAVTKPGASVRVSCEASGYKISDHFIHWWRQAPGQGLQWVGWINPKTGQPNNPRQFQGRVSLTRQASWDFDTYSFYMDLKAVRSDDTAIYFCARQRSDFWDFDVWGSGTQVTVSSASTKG
3BNC60 (antibody), sequence (VL): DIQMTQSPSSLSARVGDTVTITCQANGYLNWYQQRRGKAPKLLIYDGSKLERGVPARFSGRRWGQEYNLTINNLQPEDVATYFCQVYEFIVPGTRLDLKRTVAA
NIH45-46 (antibody), sequence (VH): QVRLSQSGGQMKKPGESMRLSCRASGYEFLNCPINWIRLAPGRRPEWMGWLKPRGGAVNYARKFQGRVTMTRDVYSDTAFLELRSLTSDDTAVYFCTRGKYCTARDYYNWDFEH
NIH45-46 (antibody), sequence (VL): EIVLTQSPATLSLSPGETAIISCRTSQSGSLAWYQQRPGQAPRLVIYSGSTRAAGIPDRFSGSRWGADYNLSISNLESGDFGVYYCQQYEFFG
8ANC195 (antibody), sequence (V domain): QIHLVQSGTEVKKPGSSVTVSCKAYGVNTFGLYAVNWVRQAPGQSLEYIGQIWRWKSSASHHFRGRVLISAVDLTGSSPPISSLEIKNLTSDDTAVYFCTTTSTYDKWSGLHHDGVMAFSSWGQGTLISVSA
8ANC195 (antibody), sequence (VL): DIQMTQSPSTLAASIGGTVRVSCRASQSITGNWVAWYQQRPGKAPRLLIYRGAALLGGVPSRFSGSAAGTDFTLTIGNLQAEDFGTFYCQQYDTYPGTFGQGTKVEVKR

In order of rising koff:
1. 3BNC55 (antibody)  0.000815 s⁻¹
2. 3BNC117 (antibody)  0.00149 s⁻¹

In order of rising kon:
1. 3BNC55 (antibody)  31600 M⁻¹ s⁻¹
2. 3BNC117 (antibody)  40500 M⁻¹ s⁻¹

Target: 2CC-core (HIV-1 YU2) (UniProt P35961)
Assay: SPR, 2CC-core on chip, IgG injected

In order of rising Kd:
1. 12A12 (antibody)  0.0269 nM
2. 12A21 (antibody)  1.81 nM
3. NIH45-46 (antibody)  4.4 nM
4. 1NC9 (antibody)  4.61 nM
5. 1B2530 (antibody)  5.9 nM
6. 3BNC55 (antibody)  25.7 nM
7. 3BNC66 (antibody)  33.6 nM
8. 3BNC117 (antibody)  36.8 nM
9. 8ANC134 (antibody)  46.1 nM
10. 3BNC60 (antibody)  54.5 nM
11. 8ANC195 (antibody)  54.7 nM
12. 8ANC131 (antibody)  66.1 nM
13. 3BNC156 (antibody)  81.2 nM

In order of falling koff:
1. 8ANC131 (antibody)  0.00323 s⁻¹
2. 3BNC60 (antibody)  0.00164 s⁻¹
3. 3BNC156 (antibody)  0.00153 s⁻¹
4. 3BNC66 (antibody)  0.00133 s⁻¹
5. 8ANC195 (antibody)  0.00132 s⁻¹
6. 8ANC134 (antibody)  0.000957 s⁻¹
7. NIH45-46 (antibody)  0.000494 s⁻¹
8. 1B2530 (antibody)  0.000402 s⁻¹
9. 12A21 (antibody)  0.00033 s⁻¹
10. 1NC9 (antibody)  0.000236 s⁻¹
11. 12A12 (antibody)  1.7e-06 s⁻¹

In order of falling kon:
1. 12A21 (antibody)  182000 M⁻¹ s⁻¹
2. NIH45-46 (antibody)  112000 M⁻¹ s⁻¹
3. 1B2530 (antibody)  68300 M⁻¹ s⁻¹
4. 12A12 (antibody)  63300 M⁻¹ s⁻¹
5. 1NC9 (antibody)  51100 M⁻¹ s⁻¹
6. 8ANC131 (antibody)  48800 M⁻¹ s⁻¹
7. 3BNC66 (antibody)  39600 M⁻¹ s⁻¹
8. 3BNC60 (antibody)  30200 M⁻¹ s⁻¹
9. 8ANC195 (antibody)  24100 M⁻¹ s⁻¹
10. 8ANC134 (antibody)  20800 M⁻¹ s⁻¹
11. 3BNC156 (antibody)  18800 M⁻¹ s⁻¹
